{"source": "the RNAGym collection of RNA variant scans (doi:10.7554/elife.80360)", "parents": {"B1": {"name": "Hairpin Ribozyme (parent)", "chain": "GUCCUCUUUCACGUGCGCGUGAAAGAGAGAAGUGAACCAGAGAAACACACGUUGUGGUAUAUUACCUGGUA"}}, "data": [{"variants_of": "B1", "assay": "self-cleavage, relative activity (ratio to wild type); higher = more cleavage; co-transcriptional", "values": [{"variant": "GUCCUGUGUCACGUGCGCGUGAAAGAGAGAAGUGAACCAGAGAAACACACGUUGUGGUAUAUUACCUGGUA", "self-cleavage": 0.269}, {"variant": "GUCCUAUUUCACGUGCGCGCGAAAGAGAGAAGUGAACCAGAGAAACACACGUUGUGGUAUAUUACCUGGUA", "self-cleavage": 0.556}, {"variant": "GUCCUGUUUCACGUGCGCGUGAAAGAGAGAAGUGAACCAGAGAAACACACGUUGUGGUAUGUUACCUGGUA", "self-cleavage": 0.147}, {"variant": "GUCCUGUUUCACGUGCGCGUGAAAGAGAGAAGCGAACCAGAGAAACACACGUUGUGGUAUAUUACCUGGUA", "self-cleavage": 0.206}, {"variant": "GUCCUGUUUCACGUGCGCGUGAAAGAGAGAAGGGAACCAGAGAAACACACGUUGUGGUAUAUUACCUGGUA", "self-cleavage": 0.0659}, {"variant": "GUCCUGUUUCACGUGCGCGUGAAAGAGAGAAGUGACCCAGAGAAACACACGUUGUGGUAUAUUACCUGGUA", "self-cleavage": 0.307}, {"variant": "GUCCUGUUUCACGUGCGCGUGAAAGAGAGAAGUGAACCAGAGAUACACACGUUGUGGUAUAUUACCUGGUA", "self-cleavage": 0.148}, {"variant": "GUCCUGUUUCACGUGCGCGUGAAAGAGAGAAGUGAACCAGAGAGACACACGUUGUGGUAUAUUACCUGGUA", "self-cleavage": 0.134}, {"variant": "GUCCUGUUUCACGUGCGCGUGAAAGAGAGAAGUGAACCAGAGACACACACGUUGUGGUAUAUUACCUGGUA", "self-cleavage": 0.17}, {"variant": "GUCCUGUUUCACGUGCGCGUGAAAGAGAGAAGUGAACCAGAGAAACAGACGUUGUGGUAUAUUACCUGGUA", "self-cleavage": 0.115}, {"variant": "GUCCUGUUUCACGUGCGCGUGAAAGAGAGAAGUGAACCAGAGAAACACACGUUGUGGUAUAUAACCUGGUA", "self-cleavage": 0.125}, {"variant": "GUCCUGUUUCACGUGCGCGUGAAAGAGAGAAGUGAACCAGAGAAACACACGUUGUGGUAUAUCACCUGGUA", "self-cleavage": 0.142}, {"variant": "GUCCUGUUUCACGUGCGCGUGAAAGAGAGUAGUGAACCAGAGAAACACACGUUGUGGUAUAUUACCUGGUA", "self-cleavage": 0.105}, {"variant": "GUCCUGUUUCACGUGCGCGUGAAAGAGAGAAGUGAACCAGAGAAACACACGUAGUGGUAUAUUACCUGGUA", "self-cleavage": 0.585}, {"variant": "GUCCUGUUUCACGUGCGCGUGAAAGAGAGAAGUGAACCAGAGAAACACACGUCGUGGUAUAUUACCUGGUA", "self-cleavage": 0.329}, {"variant": "GUCCUAUUUCACGUGCGCGUGAAAGAGAGAAGUGAACCAGAGAAACACACGUCGUGGUAUAUUACCUGGUA", "self-cleavage": 0.517}, {"variant": "GUCCUAUUUCACGUGCGCGUGAAAGAGAGAAGUGAACCAGAGAAACACACGUAGUGGUAUAUUACCUGGUA", "self-cleavage": 0.456}, {"variant": "GUCCUGUUUCACGUGCGCGUGAAAGAGAGAAGUGAACCAGAGAAACACACGUUGUGGUAUAGUACCUGGUA", "self-cleavage": 0.159}, {"variant": "GUCCUGUUUCACGUGCGCGUGAAAGAGAGAAGUGAACCAGAGAAACACACGUUGUGGUAUAAUACCUGGUA", "self-cleavage": 0.0667}, {"variant": "GUCCUGUUUCACGUGCGCGUGAAAGAGAUAAGUGAACCAGAGAAACACACGUUGUGGUAUAUUACCUGGUA", "self-cleavage": 0.0829}, {"variant": "GUCCUGUUUAACGUGCGCGUGAAAGAGAGAAGUGAACCAGAGAAACACACGUUGUGGUAUAUUACCUGGUA", "self-cleavage": 0.354}, {"variant": "GUCCUGUUUCACGUGCGCGUGAAAGAGAGAAGUGAACCAGAGAAACACACGUUGUGGUAUAUUACCUUGUA", "self-cleavage": 0.156}, {"variant": "GUCCUGUUUCACGUGCGCGUGAAAGAGAGAAGUGAACCAGAGAAACACACGUUGUGGUAUAUUACCUCGUA", "self-cleavage": 0.131}, {"variant": "GUCCUGUUUCACGUGCGCGUGAAAGAGAGAAGUGAACCAGAGAAACACACGUUGUGGUAUAUUACCUAGUA", "self-cleavage": 0.132}, {"variant": "GUCCUGUUUCACGUGCGCGUGAAAGAGAGAAGUGAACCAGAGAAACACACGGUGUGGUAUAUUACCUGGUA", "self-cleavage": 0.583}, {"variant": "GUCCUGUUUCACGUGCGCUUGAAAGAGAGAAGUGAACCAGAGAAACACACGUUGUGGUAUAUUACCUGGUA", "self-cleavage": 0.201}, {"variant": "GUCCUGUUUCACGUGCGCGUGAAACAGAGAAGUGAACCAGAGAAACACACGUUGUGGUAUAUUACCUGGUA", "self-cleavage": 0.744}, {"variant": "GUCCUAUUUCACGUGCGCGUGAAAGAGAGAAGUGAACCAGAGAAACACACGUUGUGGUAUAUCACCUGGUA", "self-cleavage": 0.191}, {"variant": "GUCCUAUUUCACGUGCGCGUGAAAGAGAGAAGUGAACCAGAGAAACACACGUUGUGGUAUAUAACCUGGUA", "self-cleavage": 0.144}, {"variant": "GUCCUGUUUCACGUACGCGUGAAAGAGAGAAGUGAACCAGAGAAACACACGUUGUGGUAUAUUACCUGGUA", "self-cleavage": 0.475}, {"variant": "GUCCUGUUUCACGUGCGCGUGAAAGAGAGAAGUGAACCAGAGAAACACACGUUGUGGGAUAUUACCUGGUA", "self-cleavage": 0.498}, {"variant": "GUCCUGUUUCACGUGCGCGUGAAAGAGAGAAGUGAACCAGAGAAACACACGUUGUGGAAUAUUACCUGGUA", "self-cleavage": 0.29}, {"variant": "GUCCUGUUUCACGUGCGCGUGAAAGAGAGAAGUGAACCAGAGAAACACACGUUGUGGCAUAUUACCUGGUA", "self-cleavage": 0.484}, {"variant": "GUCCUGUUUCACGUGCUCGUGAAAGAGAGAAGUGAACCAGAGAAACACACGUUGUGGUAUAUUACCUGGUA", "self-cleavage": 0.369}, {"variant": "GUCCUGUUUCACGUGCGCGUGAAAGAGAGAGGUGAACCAGAGAAACACACGUUGUGGUAUAUUACCUGGUA", "self-cleavage": 0.355}, {"variant": "GUCCUGUUUCACGUGCGCGUGAAAGUGAGAAGUGAACCAGAGAAACACACGUUGUGGUAUAUUACCUGGUA", "self-cleavage": 0.198}, {"variant": "GUCCUGUUUCACGUGCGCGUGAAAGGGAGAAGUGAACCAGAGAAACACACGUUGUGGUAUAUUACCUGGUA", "self-cleavage": 0.203}, {"variant": "GUCCUAUUUCACGUGCGCGUGAAAGAGAGAAGUGAACCAGAGAAACACACGUUGUGGUAUAUUACCAGGUA", "self-cleavage": 0.144}]}]}
